Experimental data reported in patent publication US20190233495A1 (Sanofi, published 2019).
Where two headings read alike, the source gives them in different places. One block for each binder: values may come before it. Positions of bridges follow the written chain, without caps; N, C: chain ends. Non-standard residues stand in square brackets, D forms with d. Chains are numbered I, II in the order given. No end group written: not given here. Nle = CCCC[C@H](N)C(=O)O; Aib = CC(C)(N)C(=O)O

Tests used:
Assay in all cases: cell-based or functional assay
RXFP1 receptor [1] = biological target: T1, RXFP1 receptor (UniProt Q9HBX9 1-757, limits assumed)
T1 sequence (looked up): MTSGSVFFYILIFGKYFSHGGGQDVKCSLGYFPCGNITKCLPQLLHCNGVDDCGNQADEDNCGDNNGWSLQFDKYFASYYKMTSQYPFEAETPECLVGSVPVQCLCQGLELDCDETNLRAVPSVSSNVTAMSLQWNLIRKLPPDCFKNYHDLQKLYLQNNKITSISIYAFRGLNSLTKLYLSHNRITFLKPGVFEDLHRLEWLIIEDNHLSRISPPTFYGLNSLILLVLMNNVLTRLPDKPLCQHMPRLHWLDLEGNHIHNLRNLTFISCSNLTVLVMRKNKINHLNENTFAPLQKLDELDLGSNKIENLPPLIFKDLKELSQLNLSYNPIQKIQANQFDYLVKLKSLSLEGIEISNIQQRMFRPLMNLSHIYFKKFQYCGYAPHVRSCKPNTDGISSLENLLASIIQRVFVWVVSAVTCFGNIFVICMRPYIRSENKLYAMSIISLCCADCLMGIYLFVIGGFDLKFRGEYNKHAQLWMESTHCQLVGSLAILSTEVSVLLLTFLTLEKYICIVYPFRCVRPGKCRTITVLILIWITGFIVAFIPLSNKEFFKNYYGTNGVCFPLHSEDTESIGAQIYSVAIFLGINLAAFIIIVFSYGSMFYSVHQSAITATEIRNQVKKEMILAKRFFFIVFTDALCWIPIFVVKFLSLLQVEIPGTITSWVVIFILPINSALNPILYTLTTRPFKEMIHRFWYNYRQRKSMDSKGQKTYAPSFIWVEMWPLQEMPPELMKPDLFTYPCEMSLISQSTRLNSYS

RXFP1 receptor [2] = biological target: T1, RXFP1 receptor; remark: listed apart in the source
RXFP1 receptor [3] = biological target: T1, RXFP1 receptor; remark: listed apart in the source

Binder: H-VIKLSGRELVRAQIAISGMSTWSKRSL-NH2 [B7-33 C11.23S]
cAMP assay in OVCAR 5 cells EC50 (RXFP1 receptor [1]): 1640 nM
cAMP assay in OVCAR 5 cells Emax (RXFP1 receptor [1]): 90%

B1: Human Relaxin-2 (H2 Relaxin) (ligand)
chain 1: H-QLYSALANKCCHVGCTKRSLARFC-OH
chain 2: H-DSWMEEVIKLCGRELVRAQIAICGMSTWS
modifications: disulfide I:10-I:15, I:11-II:11, I:24-II:23
cAMP assay in OVCAR 5 cells EC50 (RXFP1 receptor [2]): 0.1 to 0.3 nM

B3: SEQ ID NO: 48 (peptide)
peptide: Ac-ELEGREKVRAAI[Aib][Aib]EG[Nle]STWS[Aib]RKK-NH2
SMILES: CCCC[C@H](NC(=O)CNC(=O)[C@H](CCC(=O)O)NC(=O)C(C)(C)NC(=O)C(C)(C)NC(=O)[C@@H](NC(=O)[C@H](C)NC(=O)[C@H](C)NC(=O)[C@H](CCCNC(=N)N)NC(=O)[C@@H](NC(=O)[C@H](CCCCN)NC(=O)[C@H](CCC(=O)O)NC(=O)[C@H](CCCNC(=N)N)NC(=O)CNC(=O)[C@H](CCC(=O)O)NC(=O)[C@H](CC(C)C)NC(=O)[C@H](CCC(=O)O)NC(C)=O)C(C)C)[C@@H](C)CC)C(=O)N[C@@H](CO)C(=O)N[C@H](C(=O)N[C@@H](Cc1c[nH]c2ccccc12)C(=O)N[C@@H](CO)C(=O)NC(C)(C)C(=O)N[C@@H](CCCNC(=N)N)C(=O)N[C@@H](CCCCN)C(=O)N[C@@H](CCCCN)C(N)=O)[C@@H](C)O
cAMP assay in OVCAR 5 cells EC50 (RXFP1 receptor [3]): 19.5 nM
cAMP assay in OVCAR 5 cells Emax (RXFP1 receptor [3]): 91%

Binder: Ac-VIKLSGRELVRAQIAISGMSTWSKRSL-NH2 [AcB7-33 C11.23S]
cAMP assay in OVCAR 5 cells EC50 (RXFP1 receptor [1]): 929 nM
cAMP assay in OVCAR 5 cells Emax (RXFP1 receptor [1]): 70%

The next lines start with the values.

cAMP assay in OVCAR 5 cells EC50 (RXFP1 receptor [3]): 117 nM
cAMP assay in OVCAR 5 cells Emax (RXFP1 receptor [3]): 94%
B2: SEQ ID NO: 47 (peptide)
peptide: Ac-LEGREKVRAK(Ac)I[Aib][Aib]EG[Nle]STWS[Aib]RK-NH2
SMILES: CCCC[C@H](NC(=O)CNC(=O)[C@H](CCC(=O)O)NC(=O)C(C)(C)NC(=O)C(C)(C)NC(=O)[C@@H](NC(=O)[C@H](CCCCNC(C)=O)NC(=O)[C@H](C)NC(=O)[C@H](CCCNC(=N)N)NC(=O)[C@@H](NC(=O)[C@H](CCCCN)NC(=O)[C@H](CCC(=O)O)NC(=O)[C@H](CCCNC(=N)N)NC(=O)CNC(=O)[C@H](CCC(=O)O)NC(=O)[C@H](CC(C)C)NC(C)=O)C(C)C)[C@@H](C)CC)C(=O)N[C@@H](CO)C(=O)N[C@H](C(=O)N[C@@H](Cc1c[nH]c2ccccc12)C(=O)N[C@@H](CO)C(=O)NC(C)(C)C(=O)N[C@@H](CCCNC(=N)N)C(=O)N[C@@H](CCCCN)C(N)=O)[C@@H](C)O

cAMP assay in OVCAR 5 cells EC50 (RXFP1 receptor [3]): 22.2 nM
cAMP assay in OVCAR 5 cells Emax (RXFP1 receptor [3]): 95%
B4: SEQ ID NO: 49 (peptide)
peptide: Ac-LEGREKVRRQI[Aib][Aib]EG[Nle]STWS[Aib]RKK-NH2
SMILES: CCCC[C@H](NC(=O)CNC(=O)[C@H](CCC(=O)O)NC(=O)C(C)(C)NC(=O)C(C)(C)NC(=O)[C@@H](NC(=O)[C@H](CCC(N)=O)NC(=O)[C@H](CCCNC(=N)N)NC(=O)[C@H](CCCNC(=N)N)NC(=O)[C@@H](NC(=O)[C@H](CCCCN)NC(=O)[C@H](CCC(=O)O)NC(=O)[C@H](CCCNC(=N)N)NC(=O)CNC(=O)[C@H](CCC(=O)O)NC(=O)[C@H](CC(C)C)NC(C)=O)C(C)C)[C@@H](C)CC)C(=O)N[C@@H](CO)C(=O)N[C@H](C(=O)N[C@@H](Cc1c[nH]c2ccccc12)C(=O)N[C@@H](CO)C(=O)NC(C)(C)C(=O)N[C@@H](CCCNC(=N)N)C(=O)N[C@@H](CCCCN)C(=O)N[C@@H](CCCCN)C(N)=O)[C@@H](C)O

cAMP assay in OVCAR 5 cells EC50 (RXFP1 receptor [1]): 206 nM
cAMP assay in OVCAR 5 cells Emax (RXFP1 receptor [1]): 84%
Binder: Ac-VIKLSGRELVRAQIAISGMSTWSKKKK-NH2 [KKKK(AcB7-29 C11.23S)]
